B1: NanK (N-acetylmannosamine kinase) (Escherichia coli K-12) (protein)
chain: MTTLAIDIGGTKLAAALIGADGQIRDRRELPTPASQTPEALRDALSALVSPLQAHAQRVAIASTGIIRDGSLLALNPHNLGGLLHFPLVKTLEQLTNLPTIAINDAQAAAWAEFQALDGDITDMVFITVSTGVGGGVVSGCKLLTGPGGLAGHIGHTLADPHGPVCGCGRTGCVEAIASGRGIAAAAQGELAGADAKTIFTRAGQGDEQAQQLIHRSARTLARLIADIKATTDCQCVVVGGSVGLAEGYLALVETYLAQEPAAFHVDLLAAHYRHDAGLLGAALLAQGEKL
B2: NanK (N-acetylmannosamine kinase) (Escherichia coli K-12; L84P) (protein)
chain: MTTLAIDIGGTKLAAALIGADGQIRDRRELPTPASQTPEALRDALSALVSPLQAHAQRVAIASTGIIRDGSLLALNPHNLGGLPHFPLVKTLEQLTNLPTIAINDAQAAAWAEFQALDGDITDMVFITVSTGVGGGVVSGCKLLTGPGGLAGHIGHTLADPHGPVCGCGRTGCVEAIASGRGIAAAAQGELAGADAKTIFTRAGQGDEQAQQLIHRSARTLARLIADIKATTDCQCVVVGGSVGLAEGYLALVETYLAQEPAAFHVDLLAAHYRHDAGLLGAALLAQGEKL
B3: NanK (N-acetylmannosamine kinase) (Escherichia coli K-12; L84R) (protein)
chain: MTTLAIDIGGTKLAAALIGADGQIRDRRELPTPASQTPEALRDALSALVSPLQAHAQRVAIASTGIIRDGSLLALNPHNLGGLRHFPLVKTLEQLTNLPTIAINDAQAAAWAEFQALDGDITDMVFITVSTGVGGGVVSGCKLLTGPGGLAGHIGHTLADPHGPVCGCGRTGCVEAIASGRGIAAAAQGELAGADAKTIFTRAGQGDEQAQQLIHRSARTLARLIADIKATTDCQCVVVGGSVGLAEGYLALVETYLAQEPAAFHVDLLAAHYRHDAGLLGAALLAQGEKL

These proteins were tested on Nc1ncnc2c1ncn2[C@@H]1O[C@H](COP(=O)(O)OP(=O)(O)OP(=O)(O)O)[C@@H](O)[C@H]1O (assay: purified protein). Conditions: co-substrate N-acetylmannosamine.
For B1, the Km was “(1.4 ± 0.2)×10^−4 M” and the kcat was 29 ± 0.5 s⁻¹.
In the case of B2, the Km is reported as “(1.4 ± 0.3)×10^−4 M” and the kcat is reported as 13 ± 0.2 s⁻¹.
For B3, the Km was “(8.3 ± 1.4)×10^−5 M” and the kcat was 17 ± 0.3 s⁻¹.

Reference: article PMC10519446
